The assay concerns the target HIV-1 Gag polyprotein (p6 region) (HIV-1 (NL4-3)).

Turning to “HIV-1 Vpr L22E (from UniProt P12520 1-96) (natural protein)”, the % Vpr incorporation into virions relative to WT Vpr (western blot densitometry, Vpr band normalised to p24 CA) was 20 % of WT.

These data come from publication PMC3174981.
